# How the values were obtained:
# Human CD3 epsilon = target: T1, Human CD3 epsilon (human, UniProt P07766 23-207); test: flow cytometry on human PAN-T cells, 60 min at 4 °C
# T1 construct: Stood on human T cells (pan-T cells, isolated donor T cells) as part of the TCR/CD3 complex; the other chains of the complex are not written here; also called CD3ε; CD3R
# Procedure: Human PAN-T Cells (Biological Specialty Corporation, Colmar, PA) were thawed and transferred to a 15 mL conical with DPBS. The cells were centrifuged 1300 rpm for 5 minutes. DPBS was aspirated and cells were re-suspended in DPBS. The cells were counted using the Vi-cell XR cell viability analyzer and were plated at 100K/well in 100 uL DPBS. The plate was centrifuged 1200 rpm for 3 minutes and washed 2× with DPBS. Cells were stained with Violet Live/Dead stain (Thermo-Fisher) and incubated at room temperature in the dark for 15 min. The cells were centrifuged and washed 2× with FACS staining buffer (BD Pharmingen).
# Cells were washed 2× with FACS staining buffer and re-suspended in 200 μL FACS Buffer. Cells were run on BD Celesta using FACS Diva software and analyzed using FLOWJO.
# [1] = target: T2, prostate specific membrane antigen (PSMA) (human, UniProt Q04609 1-750); test: flow cytometry on LNCaP cells, 30 min at 37 °C
# T2 construct: whole, on cells
# Procedure: Media was added to neutralize trypsin and the cells were transferred to a 15 mL conical with DPBS. The cells were centrifuged 1300 rpm for 5 minutes. DPBS was aspirated and cells were re-suspended in DPBS. The cells were counted using the Vi-cell XR cell viability analyzer and were plated at 100K/well in 100 μL DPBS. The plate was centrifuged at 1200 rpm for 3 minutes and washed 2× with DPBS. Cells were stained with Violet Live/Dead stain (Thermo-Fisher) and incubated at room temperature in the dark for 15 min. The cells were centrifuged and washed 2× with FACS staining buffer (BD Pharmingen).
# Cells were washed 2× with FACS staining buffer and re-suspended in 200 μL FACS Buffer. Cells were run on BD CELESTA using FACS Diva software and analyzed using FLOWJO.
# [2] = target: T2, prostate specific membrane antigen …; test: cell-based or functional assay
# human claudin 18.2 [3] = target: T3, human claudin 18.2 (human, UniProt P56856-2 1-261); test: flow cytometry on GSU cells, 1 hr at 37 °C
# T3 construct: whole, on cells; also called CLDN18.2
# T3 sequence (looked up): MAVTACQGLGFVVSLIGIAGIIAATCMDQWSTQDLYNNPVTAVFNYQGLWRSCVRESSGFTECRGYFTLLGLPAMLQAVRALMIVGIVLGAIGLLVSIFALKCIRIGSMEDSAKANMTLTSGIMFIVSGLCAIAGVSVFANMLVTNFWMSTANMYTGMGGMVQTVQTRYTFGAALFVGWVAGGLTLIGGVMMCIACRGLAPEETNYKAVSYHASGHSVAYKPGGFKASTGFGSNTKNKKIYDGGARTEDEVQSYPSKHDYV
# Procedure: (§1) Cells were thawed in a 37° C. water bath and resuspended in complete assay media before being transferred to culture flasks. The cells used for this experiment were kept in active culture, passaged at least two times, and were >90% viable at assay initiation. The kinetic cell binding assay was initiated by adding 200 μL of cells and 200 μL of antibody into each well of a 2 mL 96-well deep plate and incubated at 37° C. At each time point, a 50 μL aliquot was removed and transferred to a round bottom 96-well plate containing cold FACS buffer. […] The secondary antibody was incubated with cells for 30 min at 4° C. protected from light. After incubation, cells were washed three times with cold FACS buffer and then resuspended in FACS buffer containing 0.1% pluronic acid, 2 mM EDTA, and Sytox Green (diluted 1:1000) to label all dead cells. Staining was immediately analyzed on the Intellicyt iQue3 (Sartorius).
# human claudin 18.2 [4] = target: T3, human claudin 18.2; test: flow cytometry on NCI-H146 cells, 1 hr at 37 °C
# Procedure: as §1
# human claudin 18.2 [5] = target: T3, human claudin 18.2; test: flow cytometry on SK-CO-1 cells, 1 hour at 37 °C
# Procedure: Purified CLDN18.2×CD3 antibodies were assessed for their ability to bind to cell lines expressing endogenous CLDN18.2 (SK-CO-1).
# SK-CO-1 cells and DMS 454 cells were suspended in 50 ml conical tubes at 20-22 million cells per 50 ml conical tube. […] Cells were incubated for 10 minutes at room temperature protected from light, and centrifuged for 5 minutes at 400×g. The supernatant was removed and the cells were resuspended in HI FBS at ˜1.5×10\hat{ }6 cells/mL to quench the staining reactions. All cells were resuspended in fresh media at ˜1.5×10\hat{ }6 cells/mL. Equal volumes of CFSE stained SK-CO-1 cells, CTV stained DMS 454 cells and unstained SK-CO-1 cells were mixed and 50 μl of mixed cells were plated per well into assay plates (˜25k cells/each cell line; ˜75k/total mixed cells/well). Anti-human transferrin human mAb and human IgG1_AAS isotype (bivalent) were used as positive and negative controls, respectively. 50 μl of CLDN18.2×CD3 titrations at 2× concentration were added in each well containing cells and incubated for one hours at 37° C. 150 μl staining buffer was added to each well after one hour incubation. The plate was spun at 500×g for 5 minutes to pellet the cells. 150 μl staining buffer was added again to each well and the plate was spun at 500×g for 5 minutes to pellet the cells. Supernatant was removed and 50 μl of A647 conjugated anti human IgG Fc specific secondary detection antibody (Jackson ImmunoResearch) was the added at 2 μg/mL in staining buffer to each well. The plates were covered with foil and incubated for 30 minutes on ice. 150 μL of IntelliCyt running buffer was added to the wells, and the plate was spun at 500×g for 5 minutes to pellet cells and the supernatant was removed. Cells were then resuspended in 35 μL running buffer and the plates were run on an iQue Screener (Sartorius).
# human GUCY2C = target: T4, human GUCY2C (human, UniProt P25092 24-1073); test: flow cytometry on CHO-huGUCY2C cells, 60 min at 37 °C
# T4 construct: whole, on cells; also called huGUCY2C; guanylate cyclase 2C
# Procedure: (§2) Cells were washed twice again, resuspended and acquired in a flow cytometer. Specific antibody binding was assessed in the RL1H channel for each cell line. Data presented as signal/background where background is secondary only.
# cyno GUCY2C = cyno GUCY2C (cynomolgus monkey, UniProt A0A2K5TZ02 16-1015); test: flow cytometry on CHO-cynoGUCY2C cells, 60 min at 37 °C
# Sequence of cyno GUCY2C (A0A2K5TZ02 entry or part of it): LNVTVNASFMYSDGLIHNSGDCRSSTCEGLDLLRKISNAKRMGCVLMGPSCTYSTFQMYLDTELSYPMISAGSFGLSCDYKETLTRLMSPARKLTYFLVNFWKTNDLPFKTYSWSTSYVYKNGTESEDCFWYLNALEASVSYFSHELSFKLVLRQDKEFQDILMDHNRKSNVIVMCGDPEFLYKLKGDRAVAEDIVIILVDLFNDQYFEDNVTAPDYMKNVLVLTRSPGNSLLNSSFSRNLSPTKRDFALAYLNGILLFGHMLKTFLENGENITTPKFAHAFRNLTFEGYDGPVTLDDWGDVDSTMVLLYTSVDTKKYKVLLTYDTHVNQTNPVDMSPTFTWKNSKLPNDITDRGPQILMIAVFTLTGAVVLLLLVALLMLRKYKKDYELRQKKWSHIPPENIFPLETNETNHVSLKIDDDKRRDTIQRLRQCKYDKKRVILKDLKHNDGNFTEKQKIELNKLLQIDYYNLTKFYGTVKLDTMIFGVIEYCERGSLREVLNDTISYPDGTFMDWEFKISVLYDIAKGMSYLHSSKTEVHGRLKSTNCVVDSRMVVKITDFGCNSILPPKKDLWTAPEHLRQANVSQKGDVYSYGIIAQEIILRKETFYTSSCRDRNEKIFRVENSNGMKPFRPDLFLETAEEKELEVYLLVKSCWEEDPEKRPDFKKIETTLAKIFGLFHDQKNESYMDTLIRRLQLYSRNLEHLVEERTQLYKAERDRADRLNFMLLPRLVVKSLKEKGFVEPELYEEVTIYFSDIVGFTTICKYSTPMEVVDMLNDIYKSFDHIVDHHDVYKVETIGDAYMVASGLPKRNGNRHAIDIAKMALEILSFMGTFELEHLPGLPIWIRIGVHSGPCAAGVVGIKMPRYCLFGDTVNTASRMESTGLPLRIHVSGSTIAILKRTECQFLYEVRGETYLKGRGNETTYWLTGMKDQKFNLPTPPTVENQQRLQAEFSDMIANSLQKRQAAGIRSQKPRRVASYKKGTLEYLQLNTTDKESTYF
# Procedure: as §2
# T2 sequence (Q04609 whole entry): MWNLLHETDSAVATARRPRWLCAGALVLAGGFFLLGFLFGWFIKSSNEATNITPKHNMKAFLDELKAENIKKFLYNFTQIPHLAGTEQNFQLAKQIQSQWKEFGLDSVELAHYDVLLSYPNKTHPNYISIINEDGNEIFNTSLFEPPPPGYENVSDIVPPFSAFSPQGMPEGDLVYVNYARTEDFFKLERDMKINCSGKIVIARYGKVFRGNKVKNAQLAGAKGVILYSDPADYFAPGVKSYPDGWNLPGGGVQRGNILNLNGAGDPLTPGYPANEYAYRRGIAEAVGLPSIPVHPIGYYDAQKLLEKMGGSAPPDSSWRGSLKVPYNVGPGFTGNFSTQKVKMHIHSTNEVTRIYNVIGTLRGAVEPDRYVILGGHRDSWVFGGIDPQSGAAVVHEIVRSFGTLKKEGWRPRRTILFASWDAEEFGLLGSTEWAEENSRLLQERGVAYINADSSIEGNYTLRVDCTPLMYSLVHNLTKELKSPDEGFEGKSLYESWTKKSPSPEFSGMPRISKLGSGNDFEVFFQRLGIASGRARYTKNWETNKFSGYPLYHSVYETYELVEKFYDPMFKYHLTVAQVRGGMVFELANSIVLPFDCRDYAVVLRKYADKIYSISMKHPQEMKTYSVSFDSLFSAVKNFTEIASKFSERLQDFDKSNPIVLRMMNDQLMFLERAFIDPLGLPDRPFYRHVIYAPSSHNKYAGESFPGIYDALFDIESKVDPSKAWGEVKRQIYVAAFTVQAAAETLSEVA
# T4 sequence (P25092 24-1073): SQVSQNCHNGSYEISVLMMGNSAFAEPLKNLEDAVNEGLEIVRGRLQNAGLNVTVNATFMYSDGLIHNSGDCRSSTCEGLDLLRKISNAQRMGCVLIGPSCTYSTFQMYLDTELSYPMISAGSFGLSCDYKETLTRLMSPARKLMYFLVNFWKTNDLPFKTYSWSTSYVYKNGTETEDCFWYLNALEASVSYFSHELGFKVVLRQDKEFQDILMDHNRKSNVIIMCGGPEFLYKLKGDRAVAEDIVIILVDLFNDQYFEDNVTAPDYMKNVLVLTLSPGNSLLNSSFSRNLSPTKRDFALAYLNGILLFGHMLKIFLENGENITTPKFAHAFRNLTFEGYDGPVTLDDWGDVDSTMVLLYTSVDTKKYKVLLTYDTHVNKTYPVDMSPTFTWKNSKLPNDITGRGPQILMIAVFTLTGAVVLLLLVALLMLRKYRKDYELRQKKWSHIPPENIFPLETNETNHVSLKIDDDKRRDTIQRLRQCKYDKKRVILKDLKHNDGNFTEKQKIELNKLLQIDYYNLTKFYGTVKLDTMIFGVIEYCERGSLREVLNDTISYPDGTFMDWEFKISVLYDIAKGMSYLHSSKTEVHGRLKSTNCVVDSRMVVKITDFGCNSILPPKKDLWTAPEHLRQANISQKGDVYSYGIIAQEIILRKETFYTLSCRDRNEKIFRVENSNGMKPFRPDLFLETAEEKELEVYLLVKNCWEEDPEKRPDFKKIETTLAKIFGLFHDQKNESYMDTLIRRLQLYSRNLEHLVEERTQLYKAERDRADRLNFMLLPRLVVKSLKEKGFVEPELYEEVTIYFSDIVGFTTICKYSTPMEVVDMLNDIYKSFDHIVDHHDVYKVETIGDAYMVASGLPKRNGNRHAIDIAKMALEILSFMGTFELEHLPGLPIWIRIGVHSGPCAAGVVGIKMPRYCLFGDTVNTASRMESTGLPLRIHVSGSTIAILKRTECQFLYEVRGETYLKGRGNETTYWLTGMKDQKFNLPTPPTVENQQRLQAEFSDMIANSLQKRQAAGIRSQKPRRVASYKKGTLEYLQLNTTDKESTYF
# T1 sequence (P07766 23-207 limits assumed): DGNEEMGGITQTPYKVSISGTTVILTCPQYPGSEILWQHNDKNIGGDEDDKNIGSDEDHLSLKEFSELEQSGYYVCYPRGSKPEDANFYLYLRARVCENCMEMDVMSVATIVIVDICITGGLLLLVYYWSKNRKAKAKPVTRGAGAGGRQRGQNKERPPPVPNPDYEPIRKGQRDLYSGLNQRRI
binder,measurement,setting,value
"stapled PSMA×CD3 antibody (PS3B2040) (bispecific antibody, human IgG1, lambda, L234A L235A, HC1/LC1 = anti-PSMA Fab arm (PSMB896-G100A-Fab); HC2 = anti-CD3 spFv-Fc (CD3B2030 N106A, VL-linker-VH); knob-in-hole IgG1; also called stapled PSMA×CD3 bispecific) heavy: EVQLVESGGGLVQPGGSLRLSCAASGFTFSSYAMSWVRQAPGKGLEWVSAISGGIGSTYYADSVKGRFTISRDNSKNTLWLQMNSLRAEDTAVYYCAKDAVGATPYYFDYWGQGTLVTVSSASTKGPSVFPLAPSSKSTSGGTAALGCLVKDYFPEPVTVSWNSGALTSGVHTFPAVLQSSGLYSLSSVVTVPSSSLGTQTYICNVNHKPSNTKVDKKVEPKSCDKTHTCPPCPAPEAAGGPSVFLFPPKPKDTLMISRTPEVTCVVVSVSHEDPEVKFNWYVDGVEVHNAKTKPREEQYNSTYRVVSVLTVLHQDWLNGKEYKCKVSNKALPAPIEKTISKAKGQPREPQVYTLPPSREEMTKNQVSLSCAVKGFYPSDIAVEWESNGQPENNYKTTPPVLDSDGSFFLVSKLTVDKSRWQQGNVFSCSVMHEALHNRFTQKSLSLSPGK light: QSVLTQPPSVSAAPGQKVTISCSGSSSNIGINYVSWYQQLPGTAPKLLIYDNNKRPSGIPDRFSGSKSGTSATLGITGLQTGDEADYYCGTWDSSLSAVVFGGGTKLTVLGQPKAAPSVTLFPPSSEELQANKATLVCLISDFYPGAVTVAWKADSSPVKAGVETTTPSKQSNNKYAASSYLSLTPEQWKSHRSYSCQVTHEGSTVEKTVAPTECS EIVLTQSPATLSASPGERVTLSCSASSSVSYMNWYQQKPGCAPRRWIYDSSKLASGVPARFSGSGSGRDYTLTISSLEPEDFAVYYCQQWSRNPPTFGGGTKVEIKGGGSGGSGGCPPCGGSGGQVQLVQSGAEVKKPGSSVKVSCKASGYTFTRSTMHWVKQAPGQGLEWIGYINPSSAYTNYNQKFQGRVTLTADKSTSTAYMELSSLRSEDTAVYYCASPQVHYDYAGFPYWGCGTLVTVSSEPKSSDKTHTCPPCPAPEAAGGPSVFLFPPKPKDTLMISRTPEVTCVVVSVSHEDPEVKFNWYVDGVEVHNAKTKPREEQYNSTYRVVSVLTVLHQDWLNGKEYKCKVSNKALPAPIEKTISKAKGQPREPQVYTLPPSREEMTKNQVSLWCLVKGFYPSDIAVEWESNGQPENNYKTTPPVLDSDGSFFLYSKLTVDKSRWQQGNVFSCSVMHEALHNHYTQKSLSLSPGK",binding result,Human CD3 epsilon,binds
same,EC50,[1],11.6 nM
same,"cytotoxicity EC50 (% tumor lysis, Incucyte), LNCaP cells with human PBMCs, E:T 3:1",[2],0.051 nM
same,"cytotoxicity EC50 (% tumor lysis, Incucyte), LNCaP cells with human Pan T cells, E:T 3:1",[2],0.06 nM
"CLDN18.2xCD3 bisp-Ab4 (bispecific antibody, The entry for the CD3 arm holds only the spFv; also called CLDN18.2×CD3 bisp-Ab4; not shown: IgG1 hinge-CH2-CH3 with L234A/L235A/D265S and heterodimerization mutations) heavy: EVQLLESGGGLVQPGGSLRLSCAASGFIFSNYYMAWVRLAPGKGLEWVSSISIGGGKSHYADSVKGRFTISRDNSKNTLYLQMNSLRAEDTAVYYCVRHPQLGPNPFDYWGQGTLVTVSSASTKGPSVFPLAPSSKSTSGGTAALGCLVKDYFPEPVTVSWNSGALTSGVHTFPAVLQSSGLYSLSSVVTVPSSSLGTQTYICNVNHKPSNTKVDKKVEPKSCDKTHTCPPCPAPEAAGGPSVFLFPPKPKDTLMISRTPEVTCVVVSVSHEDPEVKFNWYVDGVEVHNAKTKPREEQYNSTYRVVSVLTVLHQDWLNGKEYKCKVSNKALPAPIEKTISKAKGQPREPQVYTLPPSREEMTKNQVSLSCAVKGFYPSDIAVEWESNGQPENNYKTTPPVLDSDGSFFLVSKLTVDKSRWQQGNVFSCSVMHEALHNRFTQKSLSLSPGK light: DIQMTQSPSSLSASVGDRVTITCRASQSVTISSVDLMNWYQQKPGKAPKLLIYRASNLASGIPSRFSGSGSGTDFTLTISSLQPEDFATYYCQQSRESPYTFGQGTKLEIKRTVAAPSVFIFPPSDEQLKSGTASVVCLLNNFYPREAKVQWKVDNALQSGNSQESVTEQDSKDSTYSLSSTLTLSKADYEKHKVYACEVTHQGLSSPVTKSFNRGEC EIVLTQSPATLSASPGERVTLSCSASSSVSYMNWYQQKPGCAPRRWIYDSSKLASGVPARFSGSGSGRDYTLTISSLEPEDFAVYYCQQWSRNPPTFGGGTKVEIKGGGSGGSGGCPPCGGSGGQVQLVQSGAEVKKPGSSVKVSCKASGYTFTRSTMHWVKQAPGQGLEWIGYINPSSAYTNYNQKFQGRVTLTADKSTSTAYMELSSLRSEDTAVYYCASPQVHYDYAGFPYWGCGTLVTVSS",EC50,human claudin 18.2 [3],74 nM
same,EC50,human claudin 18.2 [4],23 nM
same,EC50,human claudin 18.2 [5],41.3 nM
"CLDN18.2xCD3 bisp-Ab2 (bispecific antibody, The entry for the CD3 arm holds only the spFv; not shown: IgG1 hinge-CH2-CH3 with L234A/L235A/D265S and heterodimerization mutations) heavy: EVQLLESGGGLVQPGGSLRLSCAASGFIFSNYYMAWVRLAPGKGLEWVSSISIGGGKSHYADSVKGRFTISRDNSKNTLYLQMNSLRAEDTAVYYCVRHPSLGPNPFDYWGQGTLVTVSSASTKGPSVFPLAPSSKSTSGGTAALGCLVKDYFPEPVTVSWNSGALTSGVHTFPAVLQSSGLYSLSSVVTVPSSSLGTQTYICNVNHKPSNTKVDKKVEPKSCDKTHTCPPCPAPEAAGGPSVFLFPPKPKDTLMISRTPEVTCVVVSVSHEDPEVKFNWYVDGVEVHNAKTKPREEQYNSTYRVVSVLTVLHQDWLNGKEYKCKVSNKALPAPIEKTISKAKGQPREPQVYTLPPSREEMTKNQVSLSCAVKGFYPSDIAVEWESNGQPENNYKTTPPVLDSDGSFFLVSKLTVDKSRWQQGNVFSCSVMHEALHNRFTQKSLSLSPGK light: DIQMTQSPSSLSASVGDRVTITCRASQSVTISSVDLMNWYQQKPGKAPKLLIYRASNLASGIPSRFSGSGSGTDFTLTISSLQPEDFATYYCQQSRESPYTFGQGTKLEIKRTVAAPSVFIFPPSDEQLKSGTASVVCLLNNFYPREAKVQWKVDNALQSGNSQESVTEQDSKDSTYSLSSTLTLSKADYEKHKVYACEVTHQGLSSPVTKSFNRGEC EIVLTQSPATLSASPGERVTLSCSASSSVSYMNWYQQKPGCAPRRWIYDSSKLASGVPARFSGSGSGRDYTLTISSLEPEDFAVYYCQQWSRNPPTFGGGTKVEIKGGGSGGSGGCPPCGGSGGQVQLVQSGAEVKKPGSSVKVSCKASGYTFTRSTMHWVKQAPGQGLEWIGYINPSSAYTNYNQKFQGRVTLTADKSTSTAYMELSSLRSEDTAVYYCASPQVHYDYAGFPYWGCGTLVTVSS",EC50,human claudin 18.2 [5],193 nM
"CLDN18.2xCD3 bisp-Ab3 (bispecific antibody, The entry for the CD3 arm holds only the spFv; not shown: IgG1 hinge-CH2-CH3 with L234A/L235A/D265S and heterodimerization mutations) heavy: EVQLLESGGGLVQPGGSLRLSCAASGFIFSNYYMAWVRLAPGKGLEWVSSISIGGGKSHYADSVKGRFTISRDNSKNTLYLQMNSLRAEDTAVYYCVRHPQSGPNPFDYWGQGTLVTVSSASTKGPSVFPLAPSSKSTSGGTAALGCLVKDYFPEPVTVSWNSGALTSGVHTFPAVLQSSGLYSLSSVVTVPSSSLGTQTYICNVNHKPSNTKVDKKVEPKSCDKTHTCPPCPAPEAAGGPSVFLFPPKPKDTLMISRTPEVTCVVVSVSHEDPEVKFNWYVDGVEVHNAKTKPREEQYNSTYRVVSVLTVLHQDWLNGKEYKCKVSNKALPAPIEKTISKAKGQPREPQVYTLPPSREEMTKNQVSLSCAVKGFYPSDIAVEWESNGQPENNYKTTPPVLDSDGSFFLVSKLTVDKSRWQQGNVFSCSVMHEALHNRFTQKSLSLSPGK light: DIQMTQSPSSLSASVGDRVTITCRASQSVTISSVDLMNWYQQKPGKAPKLLIYRASNLASGIPSRFSGSGSGTDFTLTISSLQPEDFATYYCQQSRESPYTFGQGTKLEIKRTVAAPSVFIFPPSDEQLKSGTASVVCLLNNFYPREAKVQWKVDNALQSGNSQESVTEQDSKDSTYSLSSTLTLSKADYEKHKVYACEVTHQGLSSPVTKSFNRGEC EIVLTQSPATLSASPGERVTLSCSASSSVSYMNWYQQKPGCAPRRWIYDSSKLASGVPARFSGSGSGRDYTLTISSLEPEDFAVYYCQQWSRNPPTFGGGTKVEIKGGGSGGSGGCPPCGGSGGQVQLVQSGAEVKKPGSSVKVSCKASGYTFTRSTMHWVKQAPGQGLEWIGYINPSSAYTNYNQKFQGRVTLTADKSTSTAYMELSSLRSEDTAVYYCASPQVHYDYAGFPYWGCGTLVTVSS",EC50,human claudin 18.2 [5],229 nM
"CLDN18.2xCD3 bisp-Ab1 (bispecific antibody, not shown: IgG1 hinge-CH2-CH3 with L234A/L235A/D265S and heterodimerization mutations) heavy: EVQLLESGGGLVQPGGSLRLSCAASGFIFSNYYMAWVRLAPGKGLEWVSSISIGGGKSSYADSVKGRFTISRDNSKNTLYLQMNSLRAEDTAVYYCVRHPQLGPNPFDYWGQGTLVTVSSASTKGPSVFPLAPSSKSTSGGTAALGCLVKDYFPEPVTVSWNSGALTSGVHTFPAVLQSSGLYSLSSVVTVPSSSLGTQTYICNVNHKPSNTKVDKKVEPKSCDKTHTCPPCPAPEAAGGPSVFLFPPKPKDTLMISRTPEVTCVVVSVSHEDPEVKFNWYVDGVEVHNAKTKPREEQYNSTYRVVSVLTVLHQDWLNGKEYKCKVSNKALPAPIEKTISKAKGQPREPQVYTLPPSREEMTKNQVSLSCAVKGFYPSDIAVEWESNGQPENNYKTTPPVLDSDGSFFLVSKLTVDKSRWQQGNVFSCSVMHEALHNRFTQKSLSLSPGK light: DIQMTQSPSSLSASVGDRVTITCRASQSVTISSVDLMNWYQQKPGKAPKLLIYRASNLASGIPSRFSGSGSGTDFTLTISSLQPEDFATYYCQQSRESPYTFGQGTKLEIKRTVAAPSVFIFPPSDEQLKSGTASVVCLLNNFYPREAKVQWKVDNALQSGNSQESVTEQDSKDSTYSLSSTLTLSKADYEKHKVYACEVTHQGLSSPVTKSFNRGEC EIVLTQSPATLSASPGERVTLSCSASSSVSYMNWYQQKPGCAPRRWIYDSSKLASGVPARFSGSGSGRDYTLTISSLEPEDFAVYYCQQWSRNPPTFGGGTKVEIKGGGSGGSGGCPPCGGSGGQVQLVQSGAEVKKPGSSVKVSCKASGYTFTRSTMHWVKQAPGQGLEWIGYINPSSAYTNYNQKFQGRVTLTADKSTSTAYMELSSLRSEDTAVYYCASPQVHYDYAGFPYWGCGTLVTVSS",EC50,human claudin 18.2 [5],12.7 nM
"GUCY2C_mAb (antibody, V domains shown, also called GUCYC2_mAb) VH: QVQLQESGPGLVKPSETLSLTCTVSGASISHYYWSWIRRPAGKGLEWIGRIYTSGSTNYNPSLKSRVTVSVDTSKNQFSLKLSSVTAADTAVYYCARDRYTGYFDLWGRGTLVTVSS VL: not shown",EC50,human GUCY2C,4.6 nM
same,EC50,cyno GUCY2C,8.7 nM
